Square brackets hold non-standard residues; d marks the D form. Ends that are not written are not given here. Cit = NC(=O)NCCC[C@H](N)C(=O)O
Tests used:
[1] = biological target: T1, citrullinated histone 2A-derived peptide (SEQ ID NO: 18), C-terminal biotin (human); test: Octet RED96 off-rate screen, biotinylated peptide on streptavidin biosensors, antibody 72 nM, 30 C
T1 construct: Captured by its biotin on NeutrAvidin plates (ELISA) or streptavidin biosensors (Octet); also called histone-derived peptide; citrullinated H2A-derived peptide
T1 peptide: SG[Cit]GKQGGKARA-biotin
Method: (§1) Off-rate screening of the isomerization-mutated antibodies was performed on an Octet® RED96 (biomolecule detection system) instrument (Pall ForteBio). All measurements were performed at 30° C. Streptavidin (SA) biosensors were first washed for 50 sec with PBS. 1 μg/ml N-terminal histone 2A (SEQ ID NO: 18) and histone 4 (SEQ ID NO: 20) peptides, containing both a citrulline at position 3 and a biotin at the C-terminus, were immobilized on SA biosensors for 200 sec, washed with PBS for 50 sec and excess reactive streptavidin molecules blocked with EZ-Link™ biocytin for 200 sec. After two additional 50 sec wash steps in PBS, antibodies at a concentration of 72 nM diluted in PBS were allowed to bind to the biosensors for 200 sec. Sensors were subsequently placed in PBS for 4000 sec in order to measure their dissociation rates.
(§2) Background signals generated with non-coated biosensors, which have been exposed to the various antibodies as well as signals from coated biosensors that have not been exposed to the various antibodies, have been subtracted before dissociation curves for each antibody were plotted. Both histone 2A and histone 4 dissociation rates constants (kdis×E-07 (1/s)) for each antibody were calculated applying a 1:1 interaction model (fitting local, full) using ForteBio data analysis software 8.1.

[2] = biological target: T2, citrullinated histone 4-derived peptide (SEQ ID NO: 20), C-terminal biotin (human, citrulline at position 3; biotin at the C-terminus); test: as above
T2 construct: Immobilized on streptavidin biosensors (Octet RED96); also called H4-derived peptide; N-terminal histone 4 peptide
T2 peptide: SGXGKGGKGLGK
Method: as §1, §2

B1: hMQ22.101j/LC17 (antibody, V domains shown)
VH: QVQLVQSGAEVKKPGASVKVSCKASGYTFTNYGMHWVRQAPGQGLEWMGWINTYSGEATYAQKFQGRVTMTRDTSISTAYMELSRLRSDDTAVYYCLRGYTYQSFDEGGDYWGQGTLVTVSS
VL: DVVMTQSPLSLPVTLGQPASISCRSSQSLLDTDGKTYLNWFQQRPGQSPRRLIYLVSKLDSGVPDRFSGSGSGTDFTLKISRVEAEDVGVYYCWQGTHFPYTFGQGTKLEIK
notes: also called isomerization mutant; heavy chain hVH22.101j with light chain hVL22.101LC17
[1]
  binding result: binds
[2]
  binding result: binds

B2: hMQ22.101HC7/LC17 (antibody, V domains shown)
VH: QVQLVQSGAEVKKPGSSVKVSCKASGYTFTNYGMHWVRQAPGQGLEWMGWINTYSGEATYAQKFQGRVTITADESTSTAYMELSSLRSEDTAVYYCLRGYTYQSFDEGGDYWGQGTLVTVSS
VL: DVVMTQSPLSLPVTLGQPASISCRSSQSLLDTDGKTYLNWFQQRPGQSPRRLIYLVSKLDSGVPDRFSGSGSGTDFTLKISRVEAEDVGVYYCWQGTHFPYTFGQGTKLEIK
notes: also called isomerization mutant; heavy chain hVH22.101HC7 with light chain hVL22.101LC17
[1]
  binding result: binds
[2]
  binding result: binds

B3: hMQ22.101HC7/LC21 (antibody, V domains shown)
VH: QVQLVQSGAEVKKPGSSVKVSCKASGYTFTNYGMHWVRQAPGQGLEWMGWINTYSGEATYAQKFQGRVTITADESTSTAYMELSSLRSEDTAVYYCLRGYTYQSFDEGGDYWGQGTLVTVSS
VL: DVVMTQSPLSLPVTLGQPASISCRSSQSLLDSDAKTYLNWFQQRPGQSPRRLIYLVSKLDSGVPDRFSGSGSGTDFTLKISRVEAEDVGVYYCWQGTHFPYTFGQGTKLEIK
notes: also called isomerization mutant; heavy chain hVH22.101HC7 with light chain hVL22.101LC21
[1]
  binding result: binds
[2]
  binding result: binds

B4: hMQ22.101HC7/LC27 (antibody, V domains shown)
VH: QVQLVQSGAEVKKPGSSVKVSCKASGYTFTNYGMHWVRQAPGQGLEWMGWINTYSGEATYAQKFQGRVTITADESTSTAYMELSSLRSEDTAVYYCLRGYTYQSFDEGGDYWGQGTLVTVSS
VL: DVVMTQSPLSLPVTLGQPASISCRSSQSLLDTDAKTYLNWFQQRPGQSPRRLIYLVSKLDSGVPDRFSGSGSGTDFTLKISRVEAEDVGVYYCWQGTHFPYTFGQGTKLEIK
notes: also called isomerization mutant; heavy chain hVH22.101HC7 with light chain hVL22.101LC27
[1]
  binding result: binds
[2]
  binding result: binds

B5: hMQ22.101HC7/LC41 (antibody, V domains shown)
VH: QVQLVQSGAEVKKPGSSVKVSCKASGYTFTNYGMHWVRQAPGQGLEWMGWINTYSGEATYAQKFQGRVTITADESTSTAYMELSSLRSEDTAVYYCLRGYTYQSFDEGGDYWGQGTLVTVSS
VL: DVVMTQSPLSLPVTLGQPASISCRSSQSLLDADGKTYLNWFQQRPGQSPRRLIYLVSKLDSGVPDRFSGSGSGTDFTLKISRVEAEDVGVYYCWQGTHFPYTFGQGTKLEIK
notes: also called isomerization mutant; heavy chain hVH22.101HC7 with light chain hVL22.101LC41
[1]
  binding result: binds
[2]
  binding result: binds

B6: hMQ22.101HC7/LC42 (antibody, V domains shown)
VH: QVQLVQSGAEVKKPGSSVKVSCKASGYTFTNYGMHWVRQAPGQGLEWMGWINTYSGEATYAQKFQGRVTITADESTSTAYMELSSLRSEDTAVYYCLRGYTYQSFDEGGDYWGQGTLVTVSS
VL: DVVMTQSPLSLPVTLGQPASISCRSSQSLLDNDGKTYLNWFQQRPGQSPRRLIYLVSKLDSGVPDRFSGSGSGTDFTLKISRVEAEDVGVYYCWQGTHFPYTFGQGTKLEIK
notes: also called isomerization mutant; heavy chain hVH22.101HC7 with light chain hVL22.101LC42
[1]
  binding result: binds
[2]
  binding result: binds

B7: hMQ22.101HC8/LC17 (antibody, V domains shown)
VH: QVQLVQSGAEVKKPGSSVKVSCKASGYTFTNYGMHWVRQAPGQGLEWMGWINTYSGEATYVDDFQGRVTITADESTSTAYMELSSLRSEDTAVYYCLRGYTYQSFDEGGDYWGQGTLVTVSS
VL: DVVMTQSPLSLPVTLGQPASISCRSSQSLLDTDGKTYLNWFQQRPGQSPRRLIYLVSKLDSGVPDRFSGSGSGTDFTLKISRVEAEDVGVYYCWQGTHFPYTFGQGTKLEIK
notes: also called isomerization mutant; heavy chain hVH22.101HC8 with light chain hVL22.101LC17
[1]
  binding result: binds
[2]
  binding result: binds

B8: hMQ22.101HC8/LC21 (antibody, V domains shown)
VH: QVQLVQSGAEVKKPGSSVKVSCKASGYTFTNYGMHWVRQAPGQGLEWMGWINTYSGEATYVDDFQGRVTITADESTSTAYMELSSLRSEDTAVYYCLRGYTYQSFDEGGDYWGQGTLVTVSS
VL: DVVMTQSPLSLPVTLGQPASISCRSSQSLLDSDAKTYLNWFQQRPGQSPRRLIYLVSKLDSGVPDRFSGSGSGTDFTLKISRVEAEDVGVYYCWQGTHFPYTFGQGTKLEIK
notes: also called isomerization mutant; heavy chain hVH22.101HC8 with light chain hVL22.101LC21
[1]
  binding result: binds
[2]
  binding result: binds

B9: hMQ22.101HC8/LC27 (antibody, V domains shown)
VH: QVQLVQSGAEVKKPGSSVKVSCKASGYTFTNYGMHWVRQAPGQGLEWMGWINTYSGEATYVDDFQGRVTITADESTSTAYMELSSLRSEDTAVYYCLRGYTYQSFDEGGDYWGQGTLVTVSS
VL: DVVMTQSPLSLPVTLGQPASISCRSSQSLLDTDAKTYLNWFQQRPGQSPRRLIYLVSKLDSGVPDRFSGSGSGTDFTLKISRVEAEDVGVYYCWQGTHFPYTFGQGTKLEIK
notes: also called isomerization mutant; heavy chain hVH22.101HC8 with light chain hVL22.101LC27
[1]
  binding result: binds
[2]
  binding result: binds

B10: hMQ22.101HC8/LC41 (antibody, V domains shown)
VH: QVQLVQSGAEVKKPGSSVKVSCKASGYTFTNYGMHWVRQAPGQGLEWMGWINTYSGEATYVDDFQGRVTITADESTSTAYMELSSLRSEDTAVYYCLRGYTYQSFDEGGDYWGQGTLVTVSS
VL: DVVMTQSPLSLPVTLGQPASISCRSSQSLLDADGKTYLNWFQQRPGQSPRRLIYLVSKLDSGVPDRFSGSGSGTDFTLKISRVEAEDVGVYYCWQGTHFPYTFGQGTKLEIK
notes: also called isomerization mutant; heavy chain hVH22.101HC8 with light chain hVL22.101LC41
[1]
  binding result: binds
[2]
  binding result: binds

B11: hMQ22.101HC8/LC42 (antibody, V domains shown)
VH: QVQLVQSGAEVKKPGSSVKVSCKASGYTFTNYGMHWVRQAPGQGLEWMGWINTYSGEATYVDDFQGRVTITADESTSTAYMELSSLRSEDTAVYYCLRGYTYQSFDEGGDYWGQGTLVTVSS
VL: DVVMTQSPLSLPVTLGQPASISCRSSQSLLDNDGKTYLNWFQQRPGQSPRRLIYLVSKLDSGVPDRFSGSGSGTDFTLKISRVEAEDVGVYYCWQGTHFPYTFGQGTKLEIK
notes: also called isomerization mutant; heavy chain hVH22.101HC8 with light chain hVL22.101LC42
[1]
  binding result: binds
[2]
  binding result: binds

B12: hMQ22.101HC9/LC17 (antibody, V domains shown)
VH: RIQLVQSGAEVKKPGASVKVSCKASGYTFTNYGMHWVRQAPGQGLEWMGWINTYSGEATYVDDFQGRVTMTRDTSISTAYMELSRLRSDDTAVYYCLRGYTYQSFDEGGDYWGQGTLVTVSS
VL: DVVMTQSPLSLPVTLGQPASISCRSSQSLLDTDGKTYLNWFQQRPGQSPRRLIYLVSKLDSGVPDRFSGSGSGTDFTLKISRVEAEDVGVYYCWQGTHFPYTFGQGTKLEIK
notes: also called isomerization mutant; heavy chain hVH22.101HC9 with light chain hVL22.101LC17
[1]
  binding result: binds
[2]
  binding result: binds

B13: hMQ22.101HC9/LC21 (antibody, V domains shown)
VH: RIQLVQSGAEVKKPGASVKVSCKASGYTFTNYGMHWVRQAPGQGLEWMGWINTYSGEATYVDDFQGRVTMTRDTSISTAYMELSRLRSDDTAVYYCLRGYTYQSFDEGGDYWGQGTLVTVSS
VL: DVVMTQSPLSLPVTLGQPASISCRSSQSLLDSDAKTYLNWFQQRPGQSPRRLIYLVSKLDSGVPDRFSGSGSGTDFTLKISRVEAEDVGVYYCWQGTHFPYTFGQGTKLEIK
notes: also called isomerization mutant; heavy chain hVH22.101HC9 with light chain hVL22.101LC21
[1]
  binding result: binds
[2]
  binding result: binds

B14: hMQ22.101HC9/LC27 (antibody, V domains shown)
VH: RIQLVQSGAEVKKPGASVKVSCKASGYTFTNYGMHWVRQAPGQGLEWMGWINTYSGEATYVDDFQGRVTMTRDTSISTAYMELSRLRSDDTAVYYCLRGYTYQSFDEGGDYWGQGTLVTVSS
VL: DVVMTQSPLSLPVTLGQPASISCRSSQSLLDTDAKTYLNWFQQRPGQSPRRLIYLVSKLDSGVPDRFSGSGSGTDFTLKISRVEAEDVGVYYCWQGTHFPYTFGQGTKLEIK
notes: also called isomerization mutant; heavy chain hVH22.101HC9 with light chain hVL22.101LC27
[1]
  binding result: binds
[2]
  binding result: binds

— US20260176342A1 (CITRYLL B V, published 2026)
